Results: patent US6613875B1, “Cyclic peptide tube” (The Scripps Research Institute, priority 1993, dated 2003)
Square brackets hold non-standard residues; d marks the D form. Peptide text beside a SMILES is read from it. dNMeA = CN[C@H](C)C(=O)O

Experiments:
[1] = pH dependent solubility of peptide subunit in aqueous media; assay type: physicochemical
Description: FIG. 17 illustrates the hydrogen bonding of molecular tubes constructed with cyclic peptide 1.
The design, synthesis, and characterization of a molecular tube, i.e., a cyclic peptide tube or “organic nanotube,” is described. A rationally designed 24-membered ring peptide structure can be constructed and shown to undergo a proton-triggered self-assembly to produce tubular structures hundreds of nanometers long, with internal van der Waals diameter of 7 to 8 Å. Formation of tubular structures is established by Electron Microscopy (EM), electron diffraction studies, and Fourier Transformed Infrared Spectroscopy (FT-IR). A three-dimensional model of the molecular tube consistent with the experimental observations is also presented. As opposed to the recently identified closed concentric graphite tubes, cyclic peptide tubes, by virtue of the cyclic nature of their components, are open ended structures and have uniform shape and internal diameter, e.g., Tsang, S. C. et al. (1993), Nature 362, 520-522 and Ajayan, P. M. et al. (1993), Nature 362, 522-525 (1993). The proton-triggered self-assembly process described herein is a highly convergent approach in which numerous ring-shaped peptide subunits interact through an extensive network of hydrogen bonds to form molecular tube structures. Example I features an eight-residue cyclic peptide with the following sequence: cyclo[-(D-Ala-Glu-D-Ala-Gln)2-]. (Sequence No.: 1) In designing the subunit, it is shown that cyclic peptides with an even number of alternating D- and L-amino acids can adopt or sample a low energy ring-shaped flat conformation in which all backbone amide functionalities lie approximately perpendicular to the plane of the structure. In this conformation, subunits can stack in an anti-parallel fashion and participate in backbone-backbone intermolecular hydrogen bonding to furnish a contiguous β-sheet structure. Moreover, because of the alternating D- and L-amino acid sequence, peptide side chains must \necessarily lie on the exterior of the ensemble thereby creating the desired hollow tubular core structure. […]

[2] = Proton transport (collapse of pH gradient) in vesicles with entrapped 5(6)-carboxyfluorescein; assay type: biochemical; settings: vesicles pH 6.5 inside, pH 5.5 outside; 25° C.; equal molar amounts of channel forming compounds
Description: The proton efflux is expressed in terms of the fractional change in the fluorescence intensity of vesicle entrapped 5(6)-carboxyfluorescein as a function of time (sampling time was at 0.3 seconds interval). Equal molar amounts of channel forming compounds were used in each experiment to allow direct comparisons of channel-mediated proton transport activity. The amount of added channel forming compounds in each experiment ranged from of 2 to 20 nmoles corresponding to approximately 150 channels per liposome for the lowest concentrations to 1100 channels per liposome for the highest amount of added compounds.
Formation of transmembrane channels was also inferred from its highly efficient proton transport activity. Vesicles were prepared having pH 6.5 inside and pH 5.5 in the outside bulk solution. The collapse of the imposed pH gradient in these vesicles, upon formation of the putative transmembrane channel structure, was studied by monitoring the fluorescence intensity of an entrapped pH-sensitive dye. (V.E. Carmichael et al, in J.Am. Chem. Soc. (1989), vol. 111, pages 767-769). […] Unilamellar vesicles were prepared by the reverse-phase evaporation using DPPC, OPPC, cholestrol in the ratio of 1:1:2 in a solution containing 5(6)-carboxyfluorescein (20 mM in phosphate/saline buffer: 137 mM NaCl, 2.6 mM KCl, 6.4 mM Na2HPO4, 1.4 mM KH2PO4, pH 6.5) according to the method of F. Szoka et al. in Proc. Natl. Acad. Sci. USA (1978), vol. 75, pages 4194-4198. […] Vesicles formed in this way are approximately 150 nanometer in diameter as determined by electron microscopy. […] To the cuvett, through an injector port, […] of the channel forming compounds in DMSO was added with continuous fluorescence monitoring at 520 nm (excitation at 470 nm). The observed data were then normalized for comparison into the fractional change in fluorescence ((I0−It)/(I0−I∞)) (V. E. Carmichael et al, in J.Am. Chem. Soc. (1989), vol. 111, pages 767-769)). […]

[3] = Dimerization (self-assembly) of N-methylated cyclic peptide in nonpolar solvents, 1H NMR / van't Hoff; assay type: physicochemical
Description: Variable temperature NMR experiments in DMSO indicate cis-trans conformational activation barriers on the order of 16 to 17 kcal.mol^−1. However, in nonpolar solvents such as carbon tetrachloride (CCl4) or deuterochloroform (CDCl3) the peptide exists in an all trans flat-ring-shaped backbone conformation which is in dynamic equilibrium with the expected dimeric cylindrical ensemble. […] The preponderance of a flat ring-shaped backbone conformation is also indicated by the observed 7.5 Hz JNH-CaH coupling constant. Intermolecular hydrogen bonding interactions producing the stacked dimeric ensemble are signified by the expected downfield shift of the phenylalanine N—H backbone resonance from 6.98 to 8.73 ppm (JNH-CaH=8.5 Hz) and are unequivocally established by the observed exchange and NOE cross peaks in its ROESY spectrum.
Formation of a tight hydrogen bonded ensemble with an average intersubunit N—O distance of 2.95 Å is also evidenced by the appearance of an N—H stretching band in the infrared spectrum at 3309 cm^−1.
[…] […] The Ka(CCl4) reported was performed in a mixture of 84% CCl4 and 16% CDCl3 for solubility reasons.
Variable temperature studies (van't Hoff plots) establish the following thermodynamic parameters for the dimerization process in chloroform: ΔCp=−203.1 cal.K^−1.mol^−1, ΔH^0298=−11.0 kcal.mol^−1, and ΔS^0298=−23.7 e.u. which clearly supports the expected enthalpic contribution of intermolecular hydrogen bonding interactions (0.5 to 0.7 kcal.mol^−1 for each hydrogen bonding interaction) as the major driving force in the self-assembly process.
The above experiments indicate that the peptide subunit adopts a flat ring-shaped solution conformation which is energetically favored toward ring stacking and intermolecular hydrogen bonding interactions by 4.0 to 5.6 kcal.mol^−1, depending on the solvent employed. It follows then that an additive gain in free energy of stabilization is to be expected as the number of ring-stacking interactions are increased. This is particularly relevant to the self-assembled nanotubes and to the transmembrane ion channel structures that can be produced.

[4] = Incorporation of peptide subunit into lipid bilayers of large unilamellar vesicles (absorption and fluorescence spectroscopy); assay type: physicochemical; settings: aqueous liposomal suspensions
Description: Incorporation of the peptide subunit into lipid bilayers using large unilamellar vesicles has been established by absorption and fluorescence spectroscopy. Formation of the hydrogen-bonded transmembrane channel structure in phosphatidylcholin liposomes has been supported by FT-IR spectroscopy (FIG. 24). The observed amide-I band at 1624 cm^−1 is not only similar to the carbonyl stretching frequencies found in other nanotube structures disclosed herein, but is also consistent with the infrared spectrum of gramicidin A in similar lipid bilayers. (E. Nabedryk et al in Biophys. J. (1982), vol. 38, pages 243-249. Furthermore, the observed N-H stretching frequency at 3272 cm^−1 strongly supports the formation of a tight network of hydrogen bonds with an average intersubunit distance of 4.7 Å.
The second control peptide cyclo[-(^MeN-D-Ala-Phe)4-] which has the desirable hydrophobic surface characteristics but lacks the propensity for participating in extended hydrogen bonding network, was also designed and tested for ion transport activity. The peptide design incorporates a novel N-methylation strategy on one face of the ring structure which predisposes the subunit toward a dimeric cylindrical structure (Ghadiri, M. R., Kobayashi, K., Granja, J. R., Chadha, R., and McRee, D. E. manuscript in preparation). Such a dimeric cylindrical ensemble is approximately 10 Å thick and can not span the lipid bilayer.
The ten-residue peptide subunit employed in the present study, cyclo[-Gln-(D-Leu-Trp)4-D-Leu-], is made up of largely tryptophan and leucine residues to favor its partitioning into and self-assembly in lipid bilayers. It was synthesized on solid support^5 and characterized by ^1H NMR spectroscopy and mass spectrometry. […] This has been supported by absorption and fluorescence spectrophotometry and gel permeation studies. Formation of a hydrogen bonded transmembrane channel structure in phosphatidylcholin liposomes has been established by FT-IR spectroscopy^6. […]

| Compound | solubility in aqueous media ([1]; acidic / low pH) | solubility in aqueous media ([1]; acidic / low pH, listed as cyclo[-(D-Ala-Glu-D-Ala-Gln)2-]) | solubility in aqueous media ([1]; high (alkaline) pH) | apparent ion (proton) transport activity [2] | association constant Ka(CCl4) of dimerization ([3]; 293 K, mixture of 84% CCl4 and 16% CDCl3, lower limit (included water)) [M⁻¹] | ΔCp of dimerization ([3]; chloroform, van't Hoff plots) [cal.K^−1.mol^−1] | ΔH^0298 of dimerization ([3]; chloroform, van't Hoff plots) [kJ/mol] | ΔS^0298 of dimerization ([3]; chloroform, van't Hoff plots) [e.u.] | association constant Ka(CDCl3) of dimerization ([3]; water rigorously excluded (4 Å molecular sieves)) [M⁻¹] | partitioning / incorporation into lipid bilayers [4] |
| --- | --- | --- | --- | --- | --- | --- | --- | --- | --- | --- |
| C[C@H]1NC(=O)[C@H](CCC(N)=O)NC(=O)[C@@H](C)NC(=O)[C@H](CCC(=O)O)NC(=O)[C@@H](C)NC(=O)[C@H](CCC(N)=O)NC(=O)[C@@H](C)NC(=O)[C@H](CCC(=O)O)NC1=O [cyclic peptide 1, cyclo[-(Gln-D-Ala-Glu-D-Ala)2-]] (cyclo(Q[dA]E[dA]Q[dA]E[dA])) | lower water solubility | lower solubility | high water solubility |  |  |  |  |  |  |  |
| cyclo[-(Gln-D-Leu)4-] (cyclo(Q[dL]Q[dL]Q[dL]Q[dL]); SMILES CC(C)C[C@H]1NC(=O)[C@H](CCC(N)=O)NC(=O)[C@@H](CC(C)C)NC(=O)[C@H](CCC(N)=O)NC(=O)[C@@H](CC(C)C)NC(=O)[C@H](CCC(N)=O)NC(=O)[C@@H](CC(C)C)NC(=O)[C@H](CCC(N)=O)NC1=O) [cyclo[-(Gln-D-Leu)4], control peptide lacking surface characteristics for partitioning into lipid bilayers] |  |  |  | does not display any ion transport activity |  |  |  |  |  |  |
| cyclo[-(L-Phe-D-^Me NAla)4-] (cyclo(F[dNMeA]F[dNMeA]F[dNMeA]F[dNMeA]); SMILES C[C@@H]1C(=O)N[C@@H](Cc2ccccc2)C(=O)N(C)[C@H](C)C(=O)N[C@@H](Cc2ccccc2)C(=O)N(C)[C@H](C)C(=O)N[C@@H](Cc2ccccc2)C(=O)N(C)[C@H](C)C(=O)N[C@@H](Cc2ccccc2)C(=O)N1C) [N-methylated cap subunit / second control peptide, forms dimeric cylindrical structure] |  |  |  | does not promote proton transport activity | 14000 | −203.1 | -46 | −23.7 | 2540 | partition effectively |
